In patent US6887467B1, “Double mutants of dihydrofolate reductase and methods of using same” (Sloan-Kettering Institute for Cancer Research, priority 1996, dated 2005):
Like-named read-outs stand apart in the source and are kept apart here.

B1: wild type: wild-type human dihydrofolate reductase, leucine at amino acid 22 and phenylalanine at amino acid 31 (protein, UniProt P00374 1-187, looked up)
Dihydrofolate reductase: MVGSLNCIVAVSQNMGIGKNGDLPWPPLRNEFRYFQRMTTTSSVEGKQNLVIMGKKTWFSIPEKNRPLKGRINLVLSRELKEPPQGAHFLSRSLDDALKLTEQPELANKVDMVWIVGGSSVYKEAMNHPGHLKLFVTRIMQDFESDTFFPEIDLEKYKLLPEYPGVLSDVQEEKGIKYKFEVYEKND

Experiments:
[1] = system: human DHFR (wild type and variants); assay: Inhibition constants (Ki) of antifolates for DHFR variants from steady state reaction rates; assay type: biochemical; conditions: for Ki Kcat/km relative: relative to wt = 1, MTX
From the text: The first parameter, Ki, is the “inhibition constant” and reflects the level of inhibition by a given compound. Ki, is obtained from steady state reaction rates observed for mixtures of enzyme, cofactor. 7,8-dihydrofolate (the normal substrate) and variable levels of antifolate. The higher the value of Ki, the higher the concentration of antifolate required to inhibit the activity of the enzyme on the normal substrate.
(§1) The parameters Km and kcat can be combined to provide a measure of overall catalytic efficiency which is given by kcat/Km. High levels of catalytic efficiency are preferred.

[2] = system: human DHFR (wild type and variants); assay: Kinetic parameters (Km, kcat) of purified DHFR variants with 7,8-dihydrofolate; assay type: biochemical
Description: Km or the “Michaelis constant” reflects the ability of an enzyme to convert a given substrate to product. In this case, the substrate is the normal substrate, 7,8-dihydrofolate. Km is determined using a double reciprocal plot of the initial velocity of the reaction as a function of the concentration of the substrate. Higher values of Km reflect a decreased affinity for the normal substrate.
kcat reflects the catalytic turnover of the enzyme. kcat values are obtained by active site titration experiments using MTX or from activity and total protein measurements of purified enzyme species.
as §1
Enzyme expressed by the transformed E. coli was purified using an MTX-affinity column, followed by DEAE-Sephacel column chromatography.

Molecule | Ki Kcat/km relative [1] | kcat [2] [s⁻¹] | Km ([2]; substrate 7,8-dihydrofolate, read-out: Km (H2folate)) [µM] | Ki ([1]; inhibitor aminopterin, read-out: Ki APT) [pM] | Ki ([1]; inhibitor methotrexate, read-out: Ki (MTX)) [pM] | Ki ([1]; inhibitor piritrexin, read-out: Ki PTX) [pM] | Ki ([1]; inhibitor trimetrexate, read-out: Ki TMTX) [pM] | Ki Kcat/km ([1]; product of Ki (MTX) and catalytic efficiency) [s⁻¹]
N[C@@H](Cc1ccc(O)cc1)C(=O)O [22 tyrosine, reference compound] | 104 |  |  |  |  |  |  | 
B1 | 1 | 12.7 | 0.08 | 1.8 | 1.2 | 132 | 13 | 0.191
